Consider one molecule from US20100120063A1, “GPCR Arrestin Assays” (DISCOVERX CORPORATION, priority 2008, published 2010).

Assay [1] addresses T1, OPRM1-PK and PROKR2 (Homo sapiens, UniProt Q8NFJ6).
T1 construct: expressed in transfected cells; host or cells: U2OS
In words: Transactivation assay, U2OS cells co-expressing OPRM1-PK and PROKR2 (FIG. 14C). The assay is classed as cell-based.
Method: (§1) For all assays, 10,000 cells per well were seeded in 20 μL media and incubated overnight in 1% Fetal Bovine Serum and appropriate basal media (F-12 or DMEM). For agonist assays, 5 μL compound was added to cells and incubated at Room Temp. […] Arrestin-EA complex formation with the GPCR was detected with 50% (v/v) of PathHunter Detection Reagent (Dx 93-0001, PathHunter reagents are available from DiscoveRx, Corp., Fremont, Calif.) (Lysis buffer active ingredient 2% CHAPS, Emerald II and Galacton star are from Applied Biosystems.) Data was read on Packard Victor 2 or PerkinElmer ViewLux readers and analyzed using GraphPad Prism 4.

The target in assay [2] is T2, OPRM1-PK (Homo sapiens, UniProt P35372).
T2 construct: PK (beta-galactosidase ED); expressed in transfected cells; host or cells: U2OS
In words: Arrestin-EA EFC agonist assay, U2OS cells expressing OPRM1-PK only. The assay is classed as cell-based. The note with it: U2OS OPRM1-PK only.
Method: as §1

T1 sequence (Q8NFJ6 whole entry, species assumed): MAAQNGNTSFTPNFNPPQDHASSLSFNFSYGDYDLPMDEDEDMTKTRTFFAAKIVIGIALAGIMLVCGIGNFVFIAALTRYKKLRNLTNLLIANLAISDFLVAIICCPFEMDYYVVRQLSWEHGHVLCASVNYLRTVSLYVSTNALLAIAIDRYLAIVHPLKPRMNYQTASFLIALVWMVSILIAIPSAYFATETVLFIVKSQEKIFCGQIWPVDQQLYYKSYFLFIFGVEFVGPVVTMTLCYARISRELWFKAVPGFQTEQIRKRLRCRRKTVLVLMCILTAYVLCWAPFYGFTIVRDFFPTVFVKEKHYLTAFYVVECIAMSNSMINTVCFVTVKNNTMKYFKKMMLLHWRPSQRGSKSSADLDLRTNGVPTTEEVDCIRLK
T2 sequence (P35372 whole entry): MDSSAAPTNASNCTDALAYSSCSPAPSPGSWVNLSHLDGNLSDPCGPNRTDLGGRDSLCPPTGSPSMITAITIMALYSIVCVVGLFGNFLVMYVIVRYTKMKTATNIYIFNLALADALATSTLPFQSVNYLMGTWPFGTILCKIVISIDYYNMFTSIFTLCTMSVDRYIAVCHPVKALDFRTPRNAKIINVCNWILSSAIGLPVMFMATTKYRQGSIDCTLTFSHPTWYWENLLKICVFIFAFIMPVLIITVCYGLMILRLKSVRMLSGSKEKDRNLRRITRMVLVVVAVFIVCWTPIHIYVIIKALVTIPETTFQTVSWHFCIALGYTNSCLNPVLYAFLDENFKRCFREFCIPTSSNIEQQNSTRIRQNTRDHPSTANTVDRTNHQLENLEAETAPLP

B1: EG-VEGF: PROKR2 ligand, EG-VEGF/prokineticin (protein)
chain: AVITGACERDVQCGAGTCCAISLWLRGLRMCTPLGREGEECHPGSHKVPFFRKRKHHTCPCLPNLLCSRFPDGRYRCSMDLKNINF
B1: the EC50 (commonly the midpoint of the concentration-response curve) worked out at 52.2 nM in assay [1] (FIG. 14C) and 32.1 nM in assay [2]. Further, the HILLSLOPE in assay [1] (FIG. 14C) is recorded as 1.328; in assay [2], 1.011. In addition, in assay [1] (OPRM1-PK and PROKR2 coexpressed), the “transactivation response” value is listed as “weak response”. Also, the BOTTOM in assay [1] (curve fit, signal, FIG. 14C) is given as 294.3; in assay [2] (curve fit, signal), 25.82. The TOP in assay [1] (curve fit, signal, FIG. 14C) turned out to be 9875; in assay [2] (curve fit, signal), 57.34. The LOGEC50 in assay [1] (log of EC50, negative sign as printed, FIG. 14C) is listed as −7.282; in assay [2] (log of EC50, negative sign as printed), −7.493.
